These are literature values, as cited in paper PMC4546937.

The target in this data set is IL-13Ralpha1 (Homo sapiens) (UniProt P78552).
UniProt P78552, sequence (P78552 22-343): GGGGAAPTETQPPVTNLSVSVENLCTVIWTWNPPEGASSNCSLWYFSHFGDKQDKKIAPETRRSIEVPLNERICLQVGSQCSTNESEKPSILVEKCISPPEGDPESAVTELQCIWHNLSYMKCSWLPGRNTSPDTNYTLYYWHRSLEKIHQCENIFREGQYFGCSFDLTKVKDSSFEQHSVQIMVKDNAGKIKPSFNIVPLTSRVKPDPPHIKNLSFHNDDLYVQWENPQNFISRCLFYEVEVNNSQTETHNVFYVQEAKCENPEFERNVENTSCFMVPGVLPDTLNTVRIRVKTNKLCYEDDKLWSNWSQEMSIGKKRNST

In general, Kd refers to the constant that tells how readily two partners part at equilibrium. In the case of IL-13 (from UniProt P35225), the Kd is 0.03 µM.
